Patent US20210139548A1 (published 2021)
*1 amine or outer side, *2 acyl side, *3 side chain or, on linkers, in order; H or OH if unused. Side-chain parts run from the residue outwards. The star is where a group is joined. C18 diacid = O=C(O)CCCCCCCCCCCCCCCCC(=O)*; γGlu = O=C(O)[C@H](CCC(=O)[*:2])N[*:1]; Isovaleryl = CC(C)CC(=O)*; AEEA = NCCOCCOCC(=O)O

B1: Compound 213 (peptide)
peptide: Isovaleryl-APEK([AEEA-AEEA-γGlu-C18 diacid])PEEETSPEELQRYYVSLRHYYNWLTRQRY-NH2
SMILES: CC(C)CC(=O)N[C@@H](C)C(=O)N1CCC[C@H]1C(=O)N[C@@H](CCC(=O)O)C(=O)N[C@@H](CCCCNC(=O)COCCOCCNC(=O)COCCOCCNC(=O)CC[C@H](NC(=O)CCCCCCCCCCCCCCCCC(=O)O)C(=O)O)C(=O)N1CCC[C@H]1C(=O)N[C@@H](CCC(=O)O)C(=O)N[C@@H](CCC(=O)O)C(=O)N[C@@H](CCC(=O)O)C(=O)N[C@H](C(=O)N[C@@H](CO)C(=O)N1CCC[C@H]1C(=O)N[C@@H](CCC(=O)O)C(=O)N[C@@H](CCC(=O)O)C(=O)N[C@@H](CC(C)C)C(=O)N[C@@H](CCC(N)=O)C(=O)N[C@@H](CCCNC(=N)N)C(=O)N[C@@H](Cc1ccc(O)cc1)C(=O)N[C@@H](Cc1ccc(O)cc1)C(=O)N[C@H](C(=O)N[C@@H](CO)C(=O)N[C@@H](CC(C)C)C(=O)N[C@@H](CCCNC(=N)N)C(=O)N[C@@H](Cc1c[nH]cn1)C(=O)N[C@@H](Cc1ccc(O)cc1)C(=O)N[C@@H](Cc1ccc(O)cc1)C(=O)N[C@@H](CC(N)=O)C(=O)N[C@@H](Cc1c[nH]c2ccccc12)C(=O)N[C@@H](CC(C)C)C(=O)N[C@H](C(=O)N[C@@H](CCCNC(=N)N)C(=O)N[C@@H](CCC(N)=O)C(=O)N[C@@H](CCCNC(=N)N)C(=O)N[C@@H](Cc1ccc(O)cc1)C(N)=O)[C@@H](C)O)C(C)C)[C@@H](C)O
B2: Compound 215 (peptide)
peptide: Isovaleryl-APEK([AEEA-AEEA-γGlu-C18 diacid])PEEDASPAELQRYYVELRHYYNWLTRQRY-NH2
SMILES: CC(C)CC(=O)N[C@@H](C)C(=O)N1CCC[C@H]1C(=O)N[C@@H](CCC(=O)O)C(=O)N[C@@H](CCCCNC(=O)COCCOCCNC(=O)COCCOCCNC(=O)CC[C@H](NC(=O)CCCCCCCCCCCCCCCCC(=O)O)C(=O)O)C(=O)N1CCC[C@H]1C(=O)N[C@@H](CCC(=O)O)C(=O)N[C@@H](CCC(=O)O)C(=O)N[C@@H](CC(=O)O)C(=O)N[C@@H](C)C(=O)N[C@@H](CO)C(=O)N1CCC[C@H]1C(=O)N[C@@H](C)C(=O)N[C@@H](CCC(=O)O)C(=O)N[C@@H](CC(C)C)C(=O)N[C@@H](CCC(N)=O)C(=O)N[C@@H](CCCNC(=N)N)C(=O)N[C@@H](Cc1ccc(O)cc1)C(=O)N[C@@H](Cc1ccc(O)cc1)C(=O)N[C@H](C(=O)N[C@@H](CCC(=O)O)C(=O)N[C@@H](CC(C)C)C(=O)N[C@@H](CCCNC(=N)N)C(=O)N[C@@H](Cc1c[nH]cn1)C(=O)N[C@@H](Cc1ccc(O)cc1)C(=O)N[C@@H](Cc1ccc(O)cc1)C(=O)N[C@@H](CC(N)=O)C(=O)N[C@@H](Cc1c[nH]c2ccccc12)C(=O)N[C@@H](CC(C)C)C(=O)N[C@H](C(=O)N[C@@H](CCCNC(=N)N)C(=O)N[C@@H](CCC(N)=O)C(=O)N[C@@H](CCCNC(=N)N)C(=O)N[C@@H](Cc1ccc(O)cc1)C(N)=O)[C@@H](C)O)C(C)C
B3: Compound 216 (peptide)
peptide: Isovaleryl-APAK([AEEA-AEEA-γGlu-C18 diacid])PEEDASPEELEQYYVSLRHYYNWLTRQRY-NH2
SMILES: CC(C)CC(=O)N[C@@H](C)C(=O)N1CCC[C@H]1C(=O)N[C@@H](C)C(=O)N[C@@H](CCCCNC(=O)COCCOCCNC(=O)COCCOCCNC(=O)CC[C@H](NC(=O)CCCCCCCCCCCCCCCCC(=O)O)C(=O)O)C(=O)N1CCC[C@H]1C(=O)N[C@@H](CCC(=O)O)C(=O)N[C@@H](CCC(=O)O)C(=O)N[C@@H](CC(=O)O)C(=O)N[C@@H](C)C(=O)N[C@@H](CO)C(=O)N1CCC[C@H]1C(=O)N[C@@H](CCC(=O)O)C(=O)N[C@@H](CCC(=O)O)C(=O)N[C@@H](CC(C)C)C(=O)N[C@@H](CCC(=O)O)C(=O)N[C@@H](CCC(N)=O)C(=O)N[C@@H](Cc1ccc(O)cc1)C(=O)N[C@@H](Cc1ccc(O)cc1)C(=O)N[C@H](C(=O)N[C@@H](CO)C(=O)N[C@@H](CC(C)C)C(=O)N[C@@H](CCCNC(=N)N)C(=O)N[C@@H](Cc1c[nH]cn1)C(=O)N[C@@H](Cc1ccc(O)cc1)C(=O)N[C@@H](Cc1ccc(O)cc1)C(=O)N[C@@H](CC(N)=O)C(=O)N[C@@H](Cc1c[nH]c2ccccc12)C(=O)N[C@@H](CC(C)C)C(=O)N[C@H](C(=O)N[C@@H](CCCNC(=N)N)C(=O)N[C@@H](CCC(N)=O)C(=O)N[C@@H](CCCNC(=N)N)C(=O)N[C@@H](Cc1ccc(O)cc1)C(N)=O)[C@@H](C)O)C(C)C
B4: Compound 218 (peptide)
peptide: Isovaleryl-APEK([AEEA-AEEA-γGlu-C18 diacid])PEEDSSPEELQRYYVALRHYYNWLTRQRY-NH2
SMILES: CC(C)CC(=O)N[C@@H](C)C(=O)N1CCC[C@H]1C(=O)N[C@@H](CCC(=O)O)C(=O)N[C@@H](CCCCNC(=O)COCCOCCNC(=O)COCCOCCNC(=O)CC[C@H](NC(=O)CCCCCCCCCCCCCCCCC(=O)O)C(=O)O)C(=O)N1CCC[C@H]1C(=O)N[C@@H](CCC(=O)O)C(=O)N[C@@H](CCC(=O)O)C(=O)N[C@@H](CC(=O)O)C(=O)N[C@@H](CO)C(=O)N[C@@H](CO)C(=O)N1CCC[C@H]1C(=O)N[C@@H](CCC(=O)O)C(=O)N[C@@H](CCC(=O)O)C(=O)N[C@@H](CC(C)C)C(=O)N[C@@H](CCC(N)=O)C(=O)N[C@@H](CCCNC(=N)N)C(=O)N[C@@H](Cc1ccc(O)cc1)C(=O)N[C@@H](Cc1ccc(O)cc1)C(=O)N[C@H](C(=O)N[C@@H](C)C(=O)N[C@@H](CC(C)C)C(=O)N[C@@H](CCCNC(=N)N)C(=O)N[C@@H](Cc1c[nH]cn1)C(=O)N[C@@H](Cc1ccc(O)cc1)C(=O)N[C@@H](Cc1ccc(O)cc1)C(=O)N[C@@H](CC(N)=O)C(=O)N[C@@H](Cc1c[nH]c2ccccc12)C(=O)N[C@@H](CC(C)C)C(=O)N[C@H](C(=O)N[C@@H](CCCNC(=N)N)C(=O)N[C@@H](CCC(N)=O)C(=O)N[C@@H](CCCNC(=N)N)C(=O)N[C@@H](Cc1ccc(O)cc1)C(N)=O)[C@@H](C)O)C(C)C
B5: Compound 219 (peptide)
peptide: Isovaleryl-APEK([AEEA-AEEA-γGlu-C18 diacid])PEEEAAPEELQRYYVSLRHYYNWLTRQRY-NH2
SMILES: CC(C)CC(=O)N[C@@H](C)C(=O)N1CCC[C@H]1C(=O)N[C@@H](CCC(=O)O)C(=O)N[C@@H](CCCCNC(=O)COCCOCCNC(=O)COCCOCCNC(=O)CC[C@H](NC(=O)CCCCCCCCCCCCCCCCC(=O)O)C(=O)O)C(=O)N1CCC[C@H]1C(=O)N[C@@H](CCC(=O)O)C(=O)N[C@@H](CCC(=O)O)C(=O)N[C@@H](CCC(=O)O)C(=O)N[C@@H](C)C(=O)N[C@@H](C)C(=O)N1CCC[C@H]1C(=O)N[C@@H](CCC(=O)O)C(=O)N[C@@H](CCC(=O)O)C(=O)N[C@@H](CC(C)C)C(=O)N[C@@H](CCC(N)=O)C(=O)N[C@@H](CCCNC(=N)N)C(=O)N[C@@H](Cc1ccc(O)cc1)C(=O)N[C@@H](Cc1ccc(O)cc1)C(=O)N[C@H](C(=O)N[C@@H](CO)C(=O)N[C@@H](CC(C)C)C(=O)N[C@@H](CCCNC(=N)N)C(=O)N[C@@H](Cc1c[nH]cn1)C(=O)N[C@@H](Cc1ccc(O)cc1)C(=O)N[C@@H](Cc1ccc(O)cc1)C(=O)N[C@@H](CC(N)=O)C(=O)N[C@@H](Cc1c[nH]c2ccccc12)C(=O)N[C@@H](CC(C)C)C(=O)N[C@H](C(=O)N[C@@H](CCCNC(=N)N)C(=O)N[C@@H](CCC(N)=O)C(=O)N[C@@H](CCCNC(=N)N)C(=O)N[C@@H](Cc1ccc(O)cc1)C(N)=O)[C@@H](C)O)C(C)C
B6: Compound 220 (peptide)
peptide: Isovaleryl-APEK([AEEA-AEEA-γGlu-C18 diacid])PEEAASAEELQRYYVSLRHYYNWLTRQRY-NH2
SMILES: CC(C)CC(=O)N[C@@H](C)C(=O)N1CCC[C@H]1C(=O)N[C@@H](CCC(=O)O)C(=O)N[C@@H](CCCCNC(=O)COCCOCCNC(=O)COCCOCCNC(=O)CC[C@H](NC(=O)CCCCCCCCCCCCCCCCC(=O)O)C(=O)O)C(=O)N1CCC[C@H]1C(=O)N[C@@H](CCC(=O)O)C(=O)N[C@@H](CCC(=O)O)C(=O)N[C@@H](C)C(=O)N[C@@H](C)C(=O)N[C@@H](CO)C(=O)N[C@@H](C)C(=O)N[C@@H](CCC(=O)O)C(=O)N[C@@H](CCC(=O)O)C(=O)N[C@@H](CC(C)C)C(=O)N[C@@H](CCC(N)=O)C(=O)N[C@@H](CCCNC(=N)N)C(=O)N[C@@H](Cc1ccc(O)cc1)C(=O)N[C@@H](Cc1ccc(O)cc1)C(=O)N[C@H](C(=O)N[C@@H](CO)C(=O)N[C@@H](CC(C)C)C(=O)N[C@@H](CCCNC(=N)N)C(=O)N[C@@H](Cc1c[nH]cn1)C(=O)N[C@@H](Cc1ccc(O)cc1)C(=O)N[C@@H](Cc1ccc(O)cc1)C(=O)N[C@@H](CC(N)=O)C(=O)N[C@@H](Cc1c[nH]c2ccccc12)C(=O)N[C@@H](CC(C)C)C(=O)N[C@H](C(=O)N[C@@H](CCCNC(=N)N)C(=O)N[C@@H](CCC(N)=O)C(=O)N[C@@H](CCCNC(=N)N)C(=O)N[C@@H](Cc1ccc(O)cc1)C(N)=O)[C@@H](C)O)C(C)C

target: T1, human neuropeptide Y2 receptor (human, UniProt P49146 1-381); assay: radioligand competition (125I-PYY(1-36)), hNPY2R membranes
T1 construct: whole, on cells; also called hNPY2 receptor; hNPY2-R
T1 sequence (looked up): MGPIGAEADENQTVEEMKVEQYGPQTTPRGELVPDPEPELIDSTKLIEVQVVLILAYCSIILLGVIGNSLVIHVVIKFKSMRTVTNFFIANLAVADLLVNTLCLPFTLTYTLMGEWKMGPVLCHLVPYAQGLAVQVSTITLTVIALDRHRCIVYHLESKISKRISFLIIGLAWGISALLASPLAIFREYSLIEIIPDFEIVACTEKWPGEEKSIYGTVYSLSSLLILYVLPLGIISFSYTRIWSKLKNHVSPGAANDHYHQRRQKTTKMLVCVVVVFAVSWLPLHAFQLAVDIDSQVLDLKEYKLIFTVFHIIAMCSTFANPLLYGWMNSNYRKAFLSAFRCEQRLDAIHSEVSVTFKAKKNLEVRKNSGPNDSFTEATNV
Outline: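 Commercial human Y2 receptor membranes (0.5 μg protein/well) were incubated with peptide for 2 h at room temperature in 50 mM HEPES, 5 mM MgCl₂, 1 mM CaCl₂, pH 7.4, with 0.2% ovalbumin. Bound radioligand was separated on PEI-soaked GF/C filters and counted by scintillation, and IC₅₀ came from nonlinear sigmoidal regression.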

Q: How did the Ki turn out when B1 was run?
A: 6.54 nM

Q: How did the Ki turn out when B2 was run?
A: 0.48 nM

Q: How did the Ki turn out when B3 was run?
A: 0.93 nM

Q: B4 was tested. Which Ki did it give?
A: 1.49 nM

Q: How did the Ki turn out when B5 was run?
A: 7.6 nM

Q: B6 was tested. Which Ki did it give?
A: 2.99 nM
